Reference: article PMC4558565

B1: bZIP63 (protoplast two-hybrid fusion) [Arabidopsis thaliana] / bZIP63 (protoplast two-hybrid fusion) [Arabidopsis thaliana] (parent)
chain 1: MEKVFSDEEISGNHHWSVNGMTSLNRSASEWAFNRFIQESSAAADDGESTTACGVSVSSPPNVPVDSEEYRAFLKSKLNLACAAVAMKRGTFIKPQDTSGRSDNGGANESEQASLASSKATPMMSSAITSGSELSGDEEEADGETNMNPTNVKRVKRMLSNRESARRSRRRKQAHLSELETQVSQLRVENSKLMKGLTDVTQTFNDASVENRVLKANIETLRAKVKMAEETVKRLTGFNPMFHNMPQIVSTVSLPSETSNSPDTTSSQVTTPEIISSGNKGKALIGCKMNRTASMRRVESLEHLQKRIRSVGDQ
chain 2: B1 chain 1
B2: bZIP63 (protoplast two-hybrid fusion) [Arabidopsis thaliana] / bZIP11 (protoplast two-hybrid fusion) [Arabidopsis thaliana] (parent)
chain 1: B1 chain 1
chain 2: MESSSSGTTSSTIQTSSGSEESLMEQRKRKRMLSNRESARRSRMKKQKLLDDLTAQVNHLKKENTEIVTSVSITTQHYLTVEAENSVLRAQLDELNHRLQSLNDIIEFLDSSNNNNNNNMGMCSNPLVGLECDDFFVNQMNMSYIMNQPLMASSDALMY

What was measured:
[1] = variants of: B1; assay: protoplast two-hybrid (P2H) assay; conditions: for response (% of signal with wt bZIP63 and AKIN10): - AKIN10 (no co-transformation), parent: 13, read off a plot; for percent of parent: with bZIP63 (protoplast two-hybrid fusion) [Arabidopsis thaliana], + AKIN10 co-transformation, parent: 100, read off a plot
[2] = variants of: B2; assay: protoplast two-hybrid (P2H) assay; conditions: for response (% of signal with wt bZIP63 and AKIN10): - AKIN10 (no co-transformation), parent: 8, read off a plot; for percent of parent: with bZIP11 (protoplast two-hybrid fusion) [Arabidopsis thaliana], + AKIN10 co-transformation, parent: 100, read off a plot

Variant	response (% of signal with wt bZIP63 and AKIN10) [1]	percent of parent [1] [%]	response (% of signal with wt bZIP63 and AKIN10) [2]	percent of parent [2] [%]
chain 1 S300A	8	79		
chain 1 S29A S294A S300A	11			
chain 1 S294A	10	75		
chain 1 S29A	7	44		
chain 1 S294A S300A	10	67		
chain 1 S29A S294A S300A			7.5	27
chain 1 S29A			11	32
chain 1 S300A			13	100
chain 1 S294A S300A			10	110
chain 1 S294A			7	110
